Substitutions are numbered along the chain they refer to. Names and notes keep the numbering of the source.
B1: wild-type human MLKL (residues 2–471), recombinant (natural protein, UniProt Q8NB16 2-471, looked up)
chain: ENLKHIITLGQVIHKRCEEMKYCKKQCRRLGHRVLGLIKPLEMLQDQGKRSVPSEKLTTAMNRFKAALEEANGEIEKFSNRSNICRFLTASQDKILFKDVNRKLSDVWKELSLLLQVEQRMPVSPISQGASWAQEDQQDADEDRRAFQMLRRDNEKIEASLRRLEINMKEIKETLRQYLPPKCMQEIPQEQIKEIKKEQLSGSPWILLRENEVSTLYKGEYHRAPVAIKVFKKLQAGSIAIVRQTFNKEIKTMKKFESPNILRIFGICIDETVTPPQFSIVMEYCELGTLRELLDREKDLTLGKRMVLVLGAARGLYRLHHSEAPELHGKIRSSNFLVTQGYQVKLAGFELRKTQTSMSLGTTREKTDRVKSTAYLSPQELEDVFYQYDVKSEIYSFGIVLWEIATGDIPFQGCNSEKIRKLVAVKRQQEPLGEDCPSELREIIDECRAHDPSVRPSVDEILKKLSTFSK
notes: human MLKL, residues 2–471; Elutes as oligomer (tetramer) and monomer peaks; the peaks were pooled except where indicated; Native MS used the oligomer SEC fraction; also called hMLKL; wild-type hMLKL; source: Sf21 insect cells (baculovirus), purified (glutathione agarose, TEV cleavage, Superdex S200); not shown: GST, N-terminal, cleaved
B2: K331N human MLKL (residues 2–471), recombinant (natural protein, UniProt Q8NB16 2-471, looked up)
chain: B1 chain with K330N
notes: human MLKL, residues 2–471, with K331N in the pseudocatalytic loop; also called K331N hMLKL; K331N hMLKL(2–471); source: Sf21 insect cells (baculovirus), purified (glutathione agarose, TEV cleavage, Superdex S200); not shown: GST, N-terminal, cleaved
B3: Streptavidin-binding peptide (SBP)-tagged human RIPK3 kinase domain (residues 2–356) (domain or fragment, UniProt Q9Y572 2-356, looked up)
chain: SCVKLWPSGAPAPLVSIEELENQELVGKGGFGTVFRAQHRKWGYDVAVKIVNSKAISREVKAMASLDNEFVLRLEGVIEKVNWDQDPKPALVTKFMENGSLSGLLQSQCPRPWPLLCRLLKEVVLGMFYLHDQNPVLLHRDLKPSNVLLDPELHVKLADFGLSTFQGGSQSGTGSGEPGGTLGYLAPELFVNVNRKASTASDVYSFGILMWAVLAGREVELPTEPSLVYEAVCNRQNRPSLAELPQAGPETPGLEGLKELMQLCWSSEPKDRPSFQECLPKTDEVFQMVENNMNAAVSTVKDFLSQLRSSNRRFSIPESGQGGTEMDGFRRTIENQHSRNDVMVSEWLNKLNLEE
notes: human RIPK3 kinase domain, residues 2–356; The His6 fusion is TEV protease-cleavable; also called SBP-hRIPK3; hRIPK3 kinase domain; source: Sf21 insect cells (bacmid from pFastBac Htb); not shown: SBP, N-terminal, kept

Columns and labels:
[1] = molecular target: the molecule itself; test: native MS; 250 mM ammonium acetate, nano electrospray; wild type: the oligomer SEC fraction; self-association
[2] = molecular target: the molecule itself; test: AUC; sedimentation velocity, 0.25, 0.5 or 1 mg/mL hMLKL, 20 mM HEPES pH 7.5, 200 mM NaCl, 50,000 rpm, 20 °C; at 1 mg/mL also with 300 μM ATP; self-association (tetramer and monomer)
[3] = molecular target: B1; test: SPR; SBP-hRIPK3 (2–356) immobilised on a streptavidin chip (Biacore SA); hMLKL flowed over at 1, 0.5, 0.25, 0.125, 0.0625 and 0 μM, 30 μL/min; 20 mM HEPES pH 8.0, 200 mM NaCl; 25 °C; details: both partners purified

With B1 the “stoichiometry N” value [1] was 4.

For B2, the “stoichiometry N” value [2] was 4.

B3: binds [3].
